One may read the Km as the concentration of substrate that gives half-maximal velocity.

Substrate in the data set: C[C@H](O)C(=O)O
The data set is described as follows: cells, lysate or membranes named. The format is biochemical, Staphylococcus aureus. The settings on record: 1.4 mM menaquinone, 5 μM FAD, phosphatidylethanolamine vesicles, NBT.

B1: Lqo (Mqo2, SACOL2623) (Staphylococcus aureus subsp. aureus COL) (protein)
chain: MAKSNSKDIVLIGAGVLSTTFGSMLKEIEPDWNIHVYERLDRPAIESSNERNNAGTGHAALCELNYTVLQPDGSIDIEKAKVINEEFEISKQFWGHLVKSGSIENPREFINPLPHISYVRGKNNVKFLKDRYEAMKAFPMFDNIEYTEDIEVMKKWIPLMMKGREDNPGIMAASKIDEGTDVNFGELTRKMAKSIEAHPNATVQFNHEVVDFEQLSNGQWEVTVKNRLTGEKFKQVTDYVFIGAGGGAIPLLQKTGIPESKHLGGFPISGQFLACTNPQVIEQHDAKVYGKEPPGTPPMTVPHLDTRYIDGQRTLLFGPFANVGPKFLKNGSNLDLFKSVKTYNITTLLAAAVKNLPLIKYSFDQVIMTKEGCMNHLRTFYPEARNEDWQLYTAGKRVQVIKDTPEHGKGFIQFGTEVVNSQDHTVIALLGESPGASTSVSVALEVLERNFPEYKTEWAPKIKKMIPSYGESLIEDEKLMRKIRKQTSKDLELGYYEN
B1: the Michaelis constant (Km) amounted to 330 µM.

The values above are taken from publication PMC3417369.
